Results reported in article PMC10855866, “Structural Analysis of Breast-Milk αS1-Casein: An α-Helical Conformation Is Required for TLR4-Stimulation” (International Journal of Molecular Sciences, 2024).
Blank lines part the entries; values can stand above or below the molecule they belong to.

Legend:
[1] = biological target: αS1-casein (Bos taurus) (UniProt P02662); assay: SPR; conditions: cited from earlier work
[2] = biological target: Toll-like receptor 4 (TLR4) (UniProt O00206)
[3] = biological target: T1, Toll-like receptor 4 (TLR4) (UniProt O00206 24-839); assay: cell-based or functional assay
T1 sequence (O00206 24-839): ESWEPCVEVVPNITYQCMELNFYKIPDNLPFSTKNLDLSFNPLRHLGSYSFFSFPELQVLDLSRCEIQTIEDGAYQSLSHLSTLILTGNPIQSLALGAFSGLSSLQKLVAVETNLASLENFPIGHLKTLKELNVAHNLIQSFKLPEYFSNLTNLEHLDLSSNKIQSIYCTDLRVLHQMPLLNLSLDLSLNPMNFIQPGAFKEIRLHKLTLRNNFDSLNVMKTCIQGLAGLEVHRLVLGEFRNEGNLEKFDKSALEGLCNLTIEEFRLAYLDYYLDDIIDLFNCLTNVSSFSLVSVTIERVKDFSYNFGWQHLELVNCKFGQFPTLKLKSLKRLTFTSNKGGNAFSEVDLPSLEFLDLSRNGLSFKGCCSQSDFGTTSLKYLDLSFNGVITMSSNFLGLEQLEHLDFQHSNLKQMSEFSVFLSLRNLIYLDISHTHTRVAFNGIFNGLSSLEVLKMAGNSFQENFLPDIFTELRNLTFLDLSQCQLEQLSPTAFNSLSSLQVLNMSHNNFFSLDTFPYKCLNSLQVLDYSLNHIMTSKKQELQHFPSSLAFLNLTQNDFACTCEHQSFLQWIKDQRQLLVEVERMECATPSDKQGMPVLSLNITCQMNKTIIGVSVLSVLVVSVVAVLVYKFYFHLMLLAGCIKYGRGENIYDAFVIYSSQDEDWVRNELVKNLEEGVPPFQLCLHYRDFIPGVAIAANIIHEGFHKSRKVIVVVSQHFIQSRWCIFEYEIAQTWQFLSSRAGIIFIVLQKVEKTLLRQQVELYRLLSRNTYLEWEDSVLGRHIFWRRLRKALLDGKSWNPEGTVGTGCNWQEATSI

[4] = biological target: T1, Toll-like receptor 4 (TLR4); assay: flow cytometry on cells; TLR4+ cells (HEK293 transfected with TLR4/MD2/CD14) and TLR4- cells incubated 24 h with 500 nM αS1-casein or a truncated variant; detected with murine anti-His6 IgG and Dylight633 anti-murine IgG; conditions: one partner purified
[5] = biological target: the molecule itself; assay: SPR; αS1-casein or P-αS1-casein immobilised on a CMDP-5 chip (450 µRIU); the same protein injected at 0.625 to 5 µM in 10 mM HEPES, 150 mM NaCl, pH 7.2 (5 min, 5 µL/min); KD could be due to a mixture of dimer, tetramer and higher oligomer
[6] = biological target: the molecule itself; assay: MST; FITC-αS1-casein (25 nM) mixed with unlabelled αS1-casein in serial dilution; sonicated 15 min, incubated 1 h at 37 °C; 20 mM HEPES pH 7.2, 0.5% BSA, 0.0025% Tween-20; oligomer step not resolved

Chain of Toll-like receptor 4 (TLR4) (UniProt O00206) (O00206 24-839): as above
Chain of αS1-casein (Bos taurus) (P02662 16-214): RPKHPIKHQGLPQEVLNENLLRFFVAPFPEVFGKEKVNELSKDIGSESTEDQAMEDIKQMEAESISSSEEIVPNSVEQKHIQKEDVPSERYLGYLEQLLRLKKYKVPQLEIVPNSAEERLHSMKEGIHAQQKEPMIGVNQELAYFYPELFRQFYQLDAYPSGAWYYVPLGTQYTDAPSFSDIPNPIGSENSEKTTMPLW

Molecule: αS1-casein (from UniProt P02662)
Kd [1]: 2000 nM

Molecule: VAEPEKMESSISSSSE [synthetic peptide V77-E92 of αS1-casein]
IL-8 secretion of TLR4+ cells after 24 h with 1.5 µM peptide (sandwich ELISA) [2]: 0.95 ng/mL

B3: αS1-casein truncated variant C1 (domain or fragment, human, UniProt P47710 16-163, looked up)
chain: RPKLPLRYPERLQNPSESSEPIPLESREEYMNGMNRQRNILREKQTDEIKDTRNESTQNCVVAEPEKMESSISSSSEEMSLSKCAEQFCRLNEYNQLQLQAAHAQEQIRRMNENSHVQVPFQQLNQLAAYPYAVWYYPQIMQYVPFPP
notes: human αS1-casein, residues 16-163; Amplified from pET TS001, which codes for an N-terminal His6 tag; also called pET C1; source: E. coli, purified (NTA column chromatography); not shown: His6, C-terminal, kept
fluorescence intensity on TLR4+ cells over TLR4- cells (fold) [4]: 2.3 fold
IL-8 secretion of TLR4+ cells after 24 h with 15 nM protein (sandwich ELISA) [3]: 5.2 ng/mL

B4: αS1-casein truncated variant C2 (domain or fragment, human, UniProt P47710 16-145, looked up)
chain: RPKLPLRYPERLQNPSESSEPIPLESREEYMNGMNRQRNILREKQTDEIKDTRNESTQNCVVAEPEKMESSISSSSEEMSLSKCAEQFCRLNEYNQLQLQAAHAQEQIRRMNENSHVQVPFQQLNQLAAY
notes: human αS1-casein, residues 16-145; Amplified from pET TS001, which codes for an N-terminal His6 tag; also called pET C2; source: E. coli, purified (NTA column chromatography); not shown: His6, C-terminal, kept
fluorescence intensity on TLR4+ cells over TLR4- cells (fold) [4]: 2.2 fold
IL-8 secretion of TLR4+ cells after 24 h with 15 nM protein (sandwich ELISA) [3]: 5.2 ng/mL

B5: recombinant human αS1-casein (natural protein, UniProt P47710 16-185, looked up)
chain: RPKLPLRYPERLQNPSESSEPIPLESREEYMNGMNRQRNILREKQTDEIKDTRNESTQNCVVAEPEKMESSISSSSEEMSLSKCAEQFCRLNEYNQLQLQAAHAQEQIRRMNENSHVQVPFQQLNQLAAYPYAVWYYPQIMQYVPFPPFSDISNPTAHENYEKNNVMLQW
notes: human αS1-casein (CSN1S1), from plasmid pET TS001; C1 and C2, made from the same plasmid, begin at residue 16 and N1-N4 end at 185, so it probably lacks the signal peptide (1-15); Not phosphorylated (made in E. coli); also called full-length αS1-casein; full-size αS1-casein; source: E. coli, purified (NTA column chromatography); not shown: His6, N-terminal, kept
Kd [5]: 2000 nM
stoichiometry N [5]: 4
Kd [6]: 2200 nM
IL-8 secretion of TLR4+ cells after 24 h with 15 nM protein (sandwich ELISA) [3]: 23.3 ng/mL

B6: in vitro phosphorylated αS1-casein (P-αS1-casein) (natural protein, human, UniProt P47710 16-185, looked up)
chain: B5 chain
modifications: phosphorylated in vitro; the sites of this preparation are not stated
notes: human αS1-casein (CSN1S1), the recombinant protein of m1 after in vitro phosphorylation; source: phosphorylated in vitro
Kd [5]: 500 nM

More lines, now with the values ahead:

IL-8 secretion of TLR4+ cells after 24 h with 15 nM protein (sandwich ELISA) [3]: 4.8 ng/mL
B1: αS1-casein truncated variant N2 (domain or fragment, human, UniProt P47710 57-185, looked up)
chain: REKQTDEIKDTRNESTQNCVVAEPEKMESSISSSSEEMSLSKCAEQFCRLNEYNQLQLQAAHAQEQIRRMNENSHVQVPFQQLNQLAAYPYAVWYYPQIMQYVPFPPFSDISNPTAHENYEKNNVMLQW

IL-8 secretion of TLR4+ cells after 24 h with 15 nM protein (sandwich ELISA) [3]: 7.5 ng/mL
B2: αS1-casein truncated variant N1 (domain or fragment, human, UniProt P47710 35-185, looked up)
chain: EPIPLESREEYMNGMNRQRNILREKQTDEIKDTRNESTQNCVVAEPEKMESSISSSSEEMSLSKCAEQFCRLNEYNQLQLQAAHAQEQIRRMNENSHVQVPFQQLNQLAAYPYAVWYYPQIMQYVPFPPFSDISNPTAHENYEKNNVMLQW

IL-8 secretion of TLR4+ cells after 24 h with 15 nM protein (sandwich ELISA) [3]: -2.5 ng/mL
B7: αS1-casein truncated variant N4 (domain or fragment, human, UniProt P47710 93-185, looked up)
chain: EMSLSKCAEQFCRLNEYNQLQLQAAHAQEQIRRMNENSHVQVPFQQLNQLAAYPYAVWYYPQIMQYVPFPPFSDISNPTAHENYEKNNVMLQW
